The source of these data is article PMC12057046, “Elucidation of short linear motif-based interactions of the MIT and rhodanese domains of the ubiquitin-specific protease 8” (Biology Direct, 2025).

To fix the notation:
B1: TET3 peptide 1705-1720 (methylcytosine dioxygenase TET3), 16-mer library wild type / USP8 rhodanese domain (ubiquitin carboxyl-terminal hydrolase 8, residues 174-317) (parent)
chain 1: GLALWEAKMKQLAERA
chain 2: KCETKEKGAITAKELYTMMTDKNISLIIMDARRMQDYQDSCILHSLSVPEEAISPGVTASWIEAHLPDDSKDTWKKRGNVEYVVLLDWFSSAKDLQIGTTLRSLKDALFKWESKTVLRNEPLVLEGGYENWLLCYPQYTTNAKV

Variants of B1 are the subject of this assay. The assay can be described thus: peptide-phage display deep mutational scan (M13, 16-mer library, displayed with a C-terminal GGGSG linker encoded by the 3' flank) selected against the GST-tagged USP8 rhodanese domain, four rounds; NGS counts summed over selection …. The following applies: with USP8 rhodanese domain (ubiquitin carboxyl-terminal hydrolase 8, residues 174-317), 10 µg GST-bait on MaxiSorp, pre-cleared on GST, 2 h at 4 °C, five washes with 0.05% Tween 20 in PBS, not graded, scale: average over two replicas of the peptide's fractional NGS count.
chain 1 GLLLWEAKMKQLAERA [chain 1 A3L]: the screen value came out at 4.33e-06.

On to chain 1 GLELWEAKMKQLAERA [chain 1 A3E], for which the screen value was found to be 0.064.

Consider chain 1 GLSLWEAKMKQLAERA [chain 1 A3S], for which the screen value came to 0.000145.

For chain 1 GLDLWEAKMKQLAERA [chain 1 A3D], the screen value came out at 0.0209.

As to chain 1 GLQLWEAKMKQLAERA [chain 1 A3Q], the screen value amounted to 0.00817.

As to chain 1 GLHLWEAKMKQLAERA [chain 1 A3H], the screen value came to 8.66e-06.

On to chain 1 GLVLWEAKMKQLAERA [chain 1 A3V], for which the screen value was 0.000173.

For chain 1 GLYLWEAKMKQLAERA [chain 1 A3Y], the screen value was 0.000177.

On to chain 1 GLTLWEAKMKQLAERA [chain 1 A3T], for which the screen value stood at 5.18e-05.

Regarding chain 1 GLPLWEAKMKQLAERA [chain 1 A3P], the screen value came to 0.000452.

As for chain 1 GLMLWEAKMKQLAERA [chain 1 A3M], the screen value was 0.00023.

chain 1 GLILWEAKMKQLAERA [chain 1 A3I]: the screen value was 4.33e-06.

As to chain 1 GLKLWEAKMKQLAERA [chain 1 A3K], the screen value stood at 1.3e-05.

Regarding chain 1 GLGLWEAKMKQLAERA [chain 1 A3G], the screen value is 3.88e-05.

With chain 1 GLFLWEAKMKQLAERA [chain 1 A3F], the screen value was found to be 4.33e-06.

Turning to chain 1 GLWLWEAKMKQLAERA [chain 1 A3W], the screen value is 9.64e-05.

chain 1 GLALWEAKMKQLAELA [chain 1 R15L]: the screen value came out at 0.000427.

Take chain 1 GLALWEAKMKQLAEHA [chain 1 R15H]: the screen value amounted to 0.000187.

As to chain 1 GLALWEAKMKQLAEKA [chain 1 R15K], the screen value came out at 0.000386.

Consider chain 1 GLALWEAKMKQLAEEA [chain 1 R15E], for which the screen value was determined as 0.00031.

Regarding chain 1 GLALWEAKMKQLAEAA [chain 1 R15A], the screen value was 4.33e-06.

With chain 1 GLALWEAKMKQLAEPA [chain 1 R15P], the screen value was 0.0867.

On to chain 1 GLALWEAKMKQLAEMA [chain 1 R15M], for which the screen value amounted to 0.000392.

In the case of chain 1 GLALWEAKMKQLAEDA [chain 1 R15D], the screen value was determined as 7.21e-05.

As for chain 1 GLALWEAKMKQLAEGA [chain 1 R15G], the screen value came out at 0.000816.

Take chain 1 GLALWEAKMKQLAEFA [chain 1 R15F]: the screen value was 2.3e-05.

For the variant chain 1 GLALWEAKMKQLAENA [chain 1 R15N], the screen value turned out to be 8.62e-05.

Regarding chain 1 GVALWEAKMKQLAERA [chain 1 L2V], the screen value is 0.00764.

For the variant chain 1 GTALWEAKMKQLAERA [chain 1 L2T], the screen value was determined as 4.33e-06.

Consider chain 1 GPALWEAKMKQLAERA [chain 1 L2P], for which the screen value came to 4.33e-06.

In the case of chain 1 GIALWEAKMKQLAERA [chain 1 L2I], the screen value worked out at 0.00377.

On to chain 1 GMALWEAKMKQLAERA [chain 1 L2M], for which the screen value was 0.000603.

As for chain 1 GSALWEAKMKQLAERA [chain 1 L2S], the screen value was determined as 1.15e-05.

With chain 1 GHALWEAKMKQLAERA [chain 1 L2H], the screen value was 2.73e-05.

chain 1 GRALWEAKMKQLAERA [chain 1 L2R]: the screen value amounted to 4.33e-06.

Turning to chain 1 GAALWEAKMKQLAERA [chain 1 L2A], the screen value turned out to be 4.33e-06.

Regarding chain 1 GKALWEAKMKQLAERA [chain 1 L2K], the screen value was found to be 1.3e-05.

As to chain 1 GWALWEAKMKQLAERA [chain 1 L2W], the screen value is 0.000401.

Take chain 1 GFALWEAKMKQLAERA [chain 1 L2F]: the screen value was 4.18e-05.

Regarding chain 1 GYALWEAKMKQLAERA [chain 1 L2Y], the screen value is 1.73e-05.

As to chain 1 NLALWEAKMKQLAERA [chain 1 G1N], the screen value was 4.46e-05.

Turning to chain 1 QLALWEAKMKQLAERA [chain 1 G1Q], the screen value turned out to be 8.66e-06.

On to chain 1 RLALWEAKMKQLAERA [chain 1 G1R], for which the screen value worked out at 4.33e-06.

For chain 1 ELALWEAKMKQLAERA [chain 1 G1E], the screen value turned out to be 6.35e-05.

Consider chain 1 KLALWEAKMKQLAERA [chain 1 G1K], for which the screen value worked out at 2.01e-05.

chain 1 GLALWEAKMKILAERA [chain 1 Q11I]: the screen value amounted to 8.66e-06.

With chain 1 GLALWEAKMKLLAERA [chain 1 Q11L], the screen value worked out at 0.0108.

chain 1 GLALWEAKMKYLAERA [chain 1 Q11Y]: the screen value turned out to be 8.66e-05.

On to chain 1 GLALWEAKMKTLAERA [chain 1 Q11T], for which the screen value came to 0.000142.

For the variant chain 1 GLALWEAKMKNLAERA [chain 1 Q11N], the screen value amounted to 0.00283.

As for chain 1 GLALWEAKMKALAERA [chain 1 Q11A], the screen value is 3.6e-05.

As to chain 1 GLALWEAKMKVLAERA [chain 1 Q11V], the screen value came to 8.66e-06.

In the case of chain 1 GLALWEAKMKFLAERA [chain 1 Q11F], the screen value turned out to be 4.33e-06.

On to chain 1 GLALWEAKMKKLAERA [chain 1 Q11K], for which the screen value was 1.15e-05.

For the variant chain 1 GLALWEAKMKSLAERA [chain 1 Q11S], the screen value amounted to 0.00344.

For chain 1 GLALWEAKMKDLAERA [chain 1 Q11D], the screen value came to 0.00724.

As to chain 1 GLALWEAKMKHLAERA [chain 1 Q11H], the screen value amounted to 0.000267.

For the variant chain 1 GLALWEAKMKWLAERA [chain 1 Q11W], the screen value came to 2.17e-05.

In the case of chain 1 GLALWEAKMKMLAERA [chain 1 Q11M], the screen value was determined as 0.000201.

For chain 1 GLALWEAKMKRLAERA [chain 1 Q11R], the screen value was found to be 0.000162.

As for chain 1 GLALWEAKMKGLAERA [chain 1 Q11G], the screen value stood at 0.000837.

Take chain 1 GLALWEAKMQQLAERA [chain 1 K10Q]: the screen value stood at 0.000152.

With chain 1 GLALWEAKMAQLAERA [chain 1 K10A], the screen value worked out at 0.0149.

For chain 1 GLALWEAKMFQLAERA [chain 1 K10F], the screen value amounted to 8.06e-05.

For the variant chain 1 GLALWEAKMTQLAERA [chain 1 K10T], the screen value is 0.00016.

For chain 1 GLALWEAKMDQLAERA [chain 1 K10D], the screen value came to 0.000192.

For the variant chain 1 GLALWEAKMLQLAERA [chain 1 K10L], the screen value is 0.000183.

Turning to chain 1 GLALWEAKMPQLAERA [chain 1 K10P], the screen value amounted to 8.66e-06.

For the variant chain 1 GLALWEAKMEQLAERA [chain 1 K10E], the screen value turned out to be 0.0209.

For chain 1 GLALWEAKMSQLAERA [chain 1 K10S], the screen value is 0.0345.

Take chain 1 GLALWEAKMVQLAERA [chain 1 K10V]: the screen value was 0.00689.

As to chain 1 GLALWEAKMHQLAERA [chain 1 K10H], the screen value worked out at 0.0117.

Turning to chain 1 GLALWEAKMNQLAERA [chain 1 K10N], the screen value is 0.0933.

For the variant chain 1 GLALWEAKMRQLAERA [chain 1 K10R], the screen value is 0.00248.

As to chain 1 GLALWEAKMGQLAERA [chain 1 K10G], the screen value worked out at 0.00596.

chain 1 GLALWEAKMYQLAERA [chain 1 K10Y]: the screen value worked out at 0.000154.

As to chain 1 GLALWEAKMIQLAERA [chain 1 K10I], the screen value was determined as 0.00024.

With chain 1 GLALWEAKMWQLAERA [chain 1 K10W], the screen value was found to be 0.00214.

For the variant chain 1 GLALWEAKMMQLAERA [chain 1 K10M], the screen value stood at 1.15e-05.

For the variant chain 1 GLALWEAKMKQLNERA [chain 1 A13N], the screen value was 0.000273.

Take chain 1 GLALWEAKMKQLVERA [chain 1 A13V]: the screen value came out at 0.0163.

For the variant chain 1 GLALWEAKMKQLMERA [chain 1 A13M], the screen value came to 5.89e-05.

For the variant chain 1 GLALWEAKMKQLIERA [chain 1 A13I], the screen value was determined as 1.3e-05.

On to chain 1 GLALWEAKMKQLPERA [chain 1 A13P], for which the screen value worked out at 5.48e-05.

For the variant chain 1 GLALWEAKMKQLLERA [chain 1 A13L], the screen value was found to be 0.000154.

On to chain 1 GLALWEAKMKQLYERA [chain 1 A13Y], for which the screen value worked out at 2.45e-05.

With chain 1 GLALWEAKMKQLDERA [chain 1 A13D], the screen value was 2.6e-05.

Take chain 1 GLALWEAKMKQLHERA [chain 1 A13H]: the screen value is 0.0027.

chain 1 GLALWEAKMKQLKERA [chain 1 A13K]: the screen value is 2.6e-05.

With chain 1 GLALWEAKMKQLEERA [chain 1 A13E], the screen value is 0.0925.

Take chain 1 GLALWEAKMKQLGERA [chain 1 A13G]: the screen value was determined as 0.0144.

On to chain 1 GLALWEAKMKQLTERA [chain 1 A13T], for which the screen value turned out to be 3.6e-05.

As to chain 1 GLALWEAKMKQLQERA [chain 1 A13Q], the screen value came out at 0.00219.

For chain 1 GLAIWEAKMKQLAERA [chain 1 L4I], the screen value worked out at 0.211.
